± gives the standard deviation of the averaged measurements.
B1: library; a variant is named by its letters at N, in order (parent)
chain: GCUGUCACCGGUGUAUUACCCUAGUGGUCGACCGGUCUGAUGAGUCUNNNNNNAGACGAAACAGC

Tests used:
[1] = variants of: B1; assay: normalized RNA/DNA level with ligand (relative to sTRSVctl = 100) (log10 (% of sTRSVctl)); ligand: hypoxanthine (xanthine aptamer); higher = less ribozyme self-cleavage, higher mRNA level; conditions: ligand concentration (+) RNA-Seq: 5 mM, HEK293T, reporter: mCherry (pCS4076), ligand present: yes
Summary of the method: (§1)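 Library plasmids carrying ribozyme switches linked to mCherry, or to eGFP in some ligand experiments, were transfected into HEK293T at 4 µg per 6-well well, with any ligand added 1 h earlier. Seventy-two hours on, total RNA was extracted with EDTA and reverse-transcribed, amplified, barcoded and sequenced. RNA level was RNA over DNA reads normalized to a spiked-in non-cleaving sequence or to the top sequences, then scaled and log-transformed. The top set was 25 sequences, the transform was ×100 and log10, and sequences needed ≥100 DNA reads.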

[2] = variants of: B1; assay: normalized RNA/DNA level without ligand (relative to sTRSVctl = 100) (log10 (% of sTRSVctl)); ligand: hypoxanthine (xanthine aptamer); higher = less ribozyme self-cleavage, higher mRNA level; conditions: HEK293T, reporter: mCherry (pCS4076), ligand present: no
Summary of the method: as §1

Variant	normalized RNA/DNA level with ligand (log10) [1]	normalized RNA/DNA level without ligand (log10) [2]
AGGCUU	1.968 ± 0.014	1.89 ± 0.043
AGGCUC	2.02 ± 0.024	2.01 ± 0.055
GGGGCG	1.93 ± 0.057	1.748 ± 0.0076
GGGGCA	1.941 ± 0.011	1.911 ± 0.01
AGGGCC	1.98 ± 0.024	1.98 ± 0.04
AGGGCU	1.99 ± 0.027	1.874 ± 0.018
CGGUCG	1.9971 ± 7.8e-05	1.87 ± 0.023
CGGUCA	2.011 ± 0.012	1.8 ± 0.026
CGGUCU	1.95 ± 0.034	1.89 ± 0.048
CGGUCC	2 ± 0.059	1.88 ± 0.066
GGGGGA	1.8897 ± 0.00058	1.77 ± 0.1
GGGGGG	1.94 ± 0.03	1.65 ± 0.049
AGGGGA	1.908 ± 0.015	1.61 ± 0.053
AGGGGU	1.855 ± 0.0023	1.61 ± 0.032
AGGGUG	1.886 ± 0.012	1.54 ± 0.09
UGGUGG	1.93 ± 0.038	1.596 ± 0.0083
UGGUGC	1.94 ± 0.011	1.855 ± 0.0028
UGGUGA	1.88 ± 0.023	1.52 ± 0.088
GGGCCC	1.95 ± 0.02	1.98 ± 0.029
GGGCCU	2.06 ± 0.045	2.014 ± 0.0022
AGGCCC	1.99 ± 0.038	1.95 ± 0.044
GGGCAC	1.9407 ± 0.0014	1.879 ± 0.012
GGGGAC	1.91 ± 0.068	1.613 ± 0.0032
GGGGAU	1.895 ± 0.015	1.749 ± 0.0068

Variant	normalized RNA/DNA level with ligand (log10) [1]	normalized RNA/DNA level without ligand (log10) [2]
GGGCUU	1.98 ± 0.069	1.96 ± 0.029
GGGCUC	1.9567 ± 0.00028	2 ± 0.093
CGGUAC	1.88 ± 0.03	1.54 ± 0.084
CGGGGG	1.86 ± 0.032	1.25 ± 0.059
CGGGGA	1.97 ± 0.097	1.76 ± 0.035
CGGGGU	1.99 ± 0.0036	1.908 ± 0.0053
CGGGCA	1.98 ± 0.049	1.8985 ± 0.0018
CGGGCC	1.944 ± 0.0098	1.99 ± 0.026
CGGGCG	1.973 ± 0.012	1.76 ± 0.024
UGGGGG	1.883 ± 0.0071	1.57 ± 0.054
UGGGGC	1.99 ± 0.025	1.94 ± 0.0063
UGGGGU	1.915 ± 0.017	1.64 ± 0.034
UGGGAC	1.897 ± 0.018	1.83 ± 0.044
UGGGAA	1.86 ± 0.054	1.64 ± 0.036
UGGGAU	1.938 ± 0.014	1.71 ± 0.02
UGGGAG	1.9 ± 0.054	1.55 ± 0.044
UGGCAC	2 ± 0.034	1.913 ± 0.019
UGGCAA	1.917 ± 0.015	1.77 ± 0.03
UGGCGC	2 ± 0.04	2 ± 0.027
UGGCGG	1.97 ± 0.14	1.69 ± 0.024
UGGCGU	1.961 ± 0.015	1.68 ± 0.064
UGGAUU	1.97 ± 0.021	1.824 ± 0.0038
UGGAUC	1.99 ± 0.04	1.95 ± 0.027
UGGAUA	1.96 ± 0.042	1.84 ± 0.02

Variant	normalized RNA/DNA level with ligand (log10) [1]	normalized RNA/DNA level without ligand (log10) [2]
AGGGAU	1.89 ± 0.051	1.713 ± 0.0045
UGGCUA	2.009 ± 0.006	1.942 ± 0.011
UGGCUC	2.02 ± 0.051	2 ± 0.021
CGGCGU	1.929 ± 0.017	1.91 ± 0.06
CGGCGG	1.889 ± 0.0076	1.48 ± 0.11
CGGCGC	2.005 ± 0.013	1.93 ± 0.064
CGGCGA	1.95 ± 0.029	1.743 ± 0.017
GGGUCU	1.98 ± 0.054	1.93 ± 0.037
GGGUCG	1.99 ± 0.02	1.78 ± 0.051
GGGUCA	1.99 ± 0.068	1.91 ± 0.032
UGGUAU	1.907 ± 0.0077	1.707 ± 0.017
UGGUAG	1.88 ± 0.028	1.55 ± 0.011
UGGUAA	1.902 ± 0.013	1.712 ± 0.011
UGGUAC	1.98 ± 0.088	1.85 ± 0.041
GGGCGA	1.99 ± 0.057	1.88 ± 0.038
GGGCGC	1.929 ± 0.013	1.7 ± 0.032
GGGCGU	2 ± 0.0057	1.96 ± 0.049
UGGUCU	1.91 ± 0.028	1.91 ± 0.025
UGGUCC	1.98 ± 0.035	1.93 ± 0.039
UGGGUU	1.99 ± 0.023	1.9 ± 0.047
UGGGUG	1.972 ± 0.0063	1.727 ± 0.016
UGGGUC	1.98 ± 0.043	1.966 ± 0.0086
AGGAUU	1.934 ± 0.0076	1.83 ± 0.075
AGGAUC	1.99 ± 0.046	1.944 ± 0.013

Variant	normalized RNA/DNA level with ligand (log10) [1]	normalized RNA/DNA level without ligand (log10) [2]
AGGCAC	1.94 ± 0.021	1.83 ± 0.042
AGGCAA	1.886 ± 0.0036	1.74 ± 0.036
GGGUGU	1.9307 ± 0.0015	1.81 ± 0.062
CGGGAU	1.94 ± 0.064	1.608 ± 0.016
CGGGAA	1.85 ± 0.029	1.53 ± 0.046
CGGGAC	1.96 ± 0.078	1.726 ± 0.0062
CGGGAG	1.87 ± 0.04	1.63 ± 0.021
CGGAUA	1.87 ± 0.041	1.51 ± 0.085
CGGAUC	2.018 ± 0.0066	1.92 ± 0.028
CGGAUG	1.993 ± 0.011	1.75 ± 0.028
UGGCCU	1.98 ± 0.043	2.008 ± 0.0053
UGGCCA	1.97 ± 0.033	1.92 ± 0.046
UGGCCG	2.015 ± 0.00026	1.956 ± 0.006
UGGCCC	2.02 ± 0.022	1.99 ± 0.044
AGGUGC	1.93 ± 0.051	1.68 ± 0.04
AGGUGG	1.83 ± 0.021	1.391 ± 0.011
GGGGUC	1.94 ± 0.025	1.84 ± 0.03
GGGGUG	1.95 ± 0.027	1.562 ± 0.0074
GGGGUU	1.98 ± 0.037	1.96 ± 0.034
AGGUCU	1.95 ± 0.028	1.813 ± 0.013
AGGUCC	1.962 ± 0.017	1.856 ± 0.0097
CGGCUU	2.05 ± 0.038	1.93 ± 0.02
CGGCUA	1.935 ± 0.017	1.67 ± 0.031
CGGCUC	2.04 ± 0.061	2.037 ± 0.017

Variant	normalized RNA/DNA level with ligand (log10) [1]	normalized RNA/DNA level without ligand (log10) [2]
CGGCUG	1.97 ± 0.037	1.889 ± 0.0029
CGGCCC	1.979 ± 0.011	2.012 ± 0.0089
CGGCCU	2.03 ± 0.021	1.93 ± 0.027
CGGCCA	1.96 ± 0.056	1.95 ± 0.027
GGGAUC	1.94 ± 0.075	1.861 ± 0.018
GGGAUU	1.9914 ± 0.00078	1.817 ± 0.014
GGGAUA	1.95 ± 0.053	1.69 ± 0.0074
AGGCGC	1.962 ± 0.0082	1.87 ± 0.031
AGGCGA	1.92 ± 0.066	1.557 ± 0.0027
UGGGCA	1.938 ± 0.014	1.84 ± 0.056
UGGGCG	1.96 ± 0.043	1.8 ± 0.042
UGGGCC	1.96 ± 0.04	2.019 ± 0.012
UGGGCU	2.05 ± 0.031	1.974 ± 0.019
CGGGUC	2.01 ± 0.05	1.946 ± 0.017
CGGGUG	1.893 ± 0.013	1.7 ± 0.05
CGGCAA	1.88 ± 0.024	1.529 ± 0.011
CGGCAC	1.923 ± 0.016	1.733 ± 0.0076
CGGUGC	1.96 ± 0.052	1.8 ± 0.051
CGGUGG	1.862 ± 0.011	1.37 ± 0.032
CGGUGA	1.93 ± 0.042	1.57 ± 0.042

— the supplement of paper PMC6757056
